According to patent publication US20140072613A1, “Compositions and Methods for Treating Cutaneous Scarring” (priority 2012, published 2014):

Columns and labels:
Experiment in all cases: biochemical
Type in all cases: biochemical
266 human kinases [1] = molecular target: 266 human kinases (Homo sapiens, UniProt Q9BYT3); settings: STK33(h); 100 μM
Source text: (§1) Specifically, in these assays, a positively charged substrate is phosphorylated with a radiolabeled phosphate group from an ATP if the kinase is not inhibited by an inhibitor peptide. The positively charged substrate then is attracted to a negatively charged filter membrane, quantified with a scintillation counter, and compared to a 100% activity control.

266 human kinases [2] = molecular target: T1, 266 human kinases (Homo sapiens, UniProt Q9UHD2); settings: TBK1(h); 100 μM
T1 sequence (Q9UHD2 1-729): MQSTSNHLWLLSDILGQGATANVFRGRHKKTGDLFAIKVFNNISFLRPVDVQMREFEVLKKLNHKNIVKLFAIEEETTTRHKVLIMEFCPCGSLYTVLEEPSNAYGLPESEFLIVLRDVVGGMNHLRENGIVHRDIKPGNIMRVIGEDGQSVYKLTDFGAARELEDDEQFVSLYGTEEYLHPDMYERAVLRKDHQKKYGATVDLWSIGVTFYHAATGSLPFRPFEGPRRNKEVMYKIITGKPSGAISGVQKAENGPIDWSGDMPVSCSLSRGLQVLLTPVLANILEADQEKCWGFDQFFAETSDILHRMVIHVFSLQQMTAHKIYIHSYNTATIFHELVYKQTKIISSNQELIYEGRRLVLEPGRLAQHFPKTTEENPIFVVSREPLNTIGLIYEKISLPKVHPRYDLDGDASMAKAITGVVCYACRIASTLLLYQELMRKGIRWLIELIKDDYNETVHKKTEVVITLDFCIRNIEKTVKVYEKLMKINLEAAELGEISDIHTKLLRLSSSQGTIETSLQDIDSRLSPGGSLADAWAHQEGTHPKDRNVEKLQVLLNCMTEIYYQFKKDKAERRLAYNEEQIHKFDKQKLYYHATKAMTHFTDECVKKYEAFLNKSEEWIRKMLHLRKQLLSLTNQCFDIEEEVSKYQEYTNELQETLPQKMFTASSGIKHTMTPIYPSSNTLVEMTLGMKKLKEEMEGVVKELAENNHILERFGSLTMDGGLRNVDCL
Source text: as §1

266 human kinases [3] = molecular target: 266 human kinases (Homo sapiens, UniProt P78362); settings: SRPK2(h); 100 μM
Sequence of 266 human kinases (Homo sapiens, UniProt P78362) (P78362 whole entry): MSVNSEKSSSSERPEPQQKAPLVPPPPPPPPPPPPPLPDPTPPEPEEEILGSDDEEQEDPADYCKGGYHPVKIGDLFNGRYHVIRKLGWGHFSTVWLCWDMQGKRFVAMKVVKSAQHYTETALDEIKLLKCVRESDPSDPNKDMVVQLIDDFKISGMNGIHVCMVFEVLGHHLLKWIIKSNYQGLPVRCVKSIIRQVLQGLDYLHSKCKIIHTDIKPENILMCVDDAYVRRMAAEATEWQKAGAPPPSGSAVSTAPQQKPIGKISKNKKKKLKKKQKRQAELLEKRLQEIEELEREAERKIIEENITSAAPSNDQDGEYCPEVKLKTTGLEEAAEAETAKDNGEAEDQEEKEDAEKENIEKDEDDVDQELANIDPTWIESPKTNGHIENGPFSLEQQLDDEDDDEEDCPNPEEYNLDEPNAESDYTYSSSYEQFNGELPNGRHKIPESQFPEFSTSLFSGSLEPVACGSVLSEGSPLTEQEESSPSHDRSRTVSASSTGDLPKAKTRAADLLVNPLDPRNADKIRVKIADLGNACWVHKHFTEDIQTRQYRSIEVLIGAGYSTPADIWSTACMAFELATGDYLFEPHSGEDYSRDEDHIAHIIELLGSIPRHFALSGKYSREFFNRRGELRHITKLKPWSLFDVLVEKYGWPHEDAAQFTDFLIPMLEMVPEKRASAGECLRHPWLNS
Source text: as §1

266 human kinases [4] = molecular target: 266 human kinases (Homo sapiens, UniProt P06213); settings: IR(h), 100 μM
Source text: as §1

266 human kinases [5] = molecular target: 266 human kinases (Homo sapiens, UniProt P23443); settings: p70S6K(h); 100 μM
Sequence of 266 human kinases (Homo sapiens, UniProt P23443) (P23443 whole entry): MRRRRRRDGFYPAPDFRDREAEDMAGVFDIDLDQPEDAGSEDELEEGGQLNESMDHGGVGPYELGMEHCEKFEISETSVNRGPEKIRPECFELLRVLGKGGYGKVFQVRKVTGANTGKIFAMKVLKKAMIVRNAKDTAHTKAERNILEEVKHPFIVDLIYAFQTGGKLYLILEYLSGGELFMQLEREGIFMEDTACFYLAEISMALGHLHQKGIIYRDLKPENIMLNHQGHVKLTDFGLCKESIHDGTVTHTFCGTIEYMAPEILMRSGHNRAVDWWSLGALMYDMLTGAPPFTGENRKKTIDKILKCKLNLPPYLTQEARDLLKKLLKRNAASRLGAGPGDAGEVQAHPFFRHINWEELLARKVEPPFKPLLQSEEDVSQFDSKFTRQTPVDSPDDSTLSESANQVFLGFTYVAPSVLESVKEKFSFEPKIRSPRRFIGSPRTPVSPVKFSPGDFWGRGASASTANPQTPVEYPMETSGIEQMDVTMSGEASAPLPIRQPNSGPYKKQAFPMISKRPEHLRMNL
Source text: as §1

266 human kinases [6] = molecular target: 266 human kinases (Homo sapiens, UniProt P48730); settings: CK1δ(h); 100 μM
Source text: as §1

266 human kinases [7] = molecular target: 266 human kinases (Homo sapiens, UniProt Q15759); settings: SAPK2b(h); 100 μM
Source text: as §1

266 human kinases [8] = molecular target: 266 human kinases (Homo sapiens, UniProt Q13557); settings: CaMKIIδ(h); 100 μM
Source text: as §1

266 human kinases [9] = molecular target: 266 human kinases (Homo sapiens, UniProt Q13555); settings: CaMKIIγ(h); 100 μM
Source text: as §1

266 human kinases [10] = molecular target: 266 human kinases (Homo sapiens, UniProt Q9P1W9); settings: Pim-2(h); 100 μM
Sequence of 266 human kinases (Homo sapiens, UniProt Q9P1W9) (Q9P1W9 whole entry): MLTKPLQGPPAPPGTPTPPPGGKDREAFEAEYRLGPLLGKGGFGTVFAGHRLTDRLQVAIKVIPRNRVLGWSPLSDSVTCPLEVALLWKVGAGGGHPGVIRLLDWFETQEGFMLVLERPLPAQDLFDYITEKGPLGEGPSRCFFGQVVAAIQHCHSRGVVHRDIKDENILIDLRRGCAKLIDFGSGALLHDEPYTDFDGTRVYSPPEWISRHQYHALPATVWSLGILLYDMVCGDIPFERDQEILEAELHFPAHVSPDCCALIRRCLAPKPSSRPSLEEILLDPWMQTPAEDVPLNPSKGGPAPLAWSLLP
Source text: as §1

266 human kinases [11] = molecular target: 266 human kinases (Homo sapiens, UniProt P15735); settings: PhKγ2(h); 100 μM
Source text: as §1

266 human kinases [12] = molecular target: 266 human kinases (Homo sapiens, UniProt O43293); settings: ZIPK(h); 100 μM
Source text: as §1

266 human kinases [13] = molecular target: 266 human kinases (Homo sapiens, UniProt P00533, L858R); settings: EGFR(L858R)(h); 100 μM
Source text: as §1

266 human kinases [14] = molecular target: 266 human kinases (Homo sapiens, UniProt Q8WTQ7); settings: GRK7(h); 100 μM
Source text: as §1

266 human kinases [15] = molecular target: 266 human kinases (Homo sapiens, UniProt Q04912); settings: Ron(h); 100 μM
Source text: as §1

266 human kinases [16] = molecular target: 266 human kinases (Homo sapiens, UniProt Q9Y3S1); settings: WNK2(h); 100 μM
Source text: as §1

266 human kinases [17] = molecular target: 266 human kinases (Homo sapiens, UniProt P22607); settings: FGFR3(h); 100 μM
Source text: as §1

266 human kinases [18] = molecular target: 266 human kinases (Homo sapiens, UniProt P00519, T315I); settings: Abl(T315I)(h); 100 μM
Source text: as §1

266 human kinases [19] = molecular target: 266 human kinases (Homo sapiens, UniProt Q16513); settings: PRK2(h); 100 μM
Sequence of 266 human kinases (Homo sapiens, UniProt Q16513) (Q16513 whole entry): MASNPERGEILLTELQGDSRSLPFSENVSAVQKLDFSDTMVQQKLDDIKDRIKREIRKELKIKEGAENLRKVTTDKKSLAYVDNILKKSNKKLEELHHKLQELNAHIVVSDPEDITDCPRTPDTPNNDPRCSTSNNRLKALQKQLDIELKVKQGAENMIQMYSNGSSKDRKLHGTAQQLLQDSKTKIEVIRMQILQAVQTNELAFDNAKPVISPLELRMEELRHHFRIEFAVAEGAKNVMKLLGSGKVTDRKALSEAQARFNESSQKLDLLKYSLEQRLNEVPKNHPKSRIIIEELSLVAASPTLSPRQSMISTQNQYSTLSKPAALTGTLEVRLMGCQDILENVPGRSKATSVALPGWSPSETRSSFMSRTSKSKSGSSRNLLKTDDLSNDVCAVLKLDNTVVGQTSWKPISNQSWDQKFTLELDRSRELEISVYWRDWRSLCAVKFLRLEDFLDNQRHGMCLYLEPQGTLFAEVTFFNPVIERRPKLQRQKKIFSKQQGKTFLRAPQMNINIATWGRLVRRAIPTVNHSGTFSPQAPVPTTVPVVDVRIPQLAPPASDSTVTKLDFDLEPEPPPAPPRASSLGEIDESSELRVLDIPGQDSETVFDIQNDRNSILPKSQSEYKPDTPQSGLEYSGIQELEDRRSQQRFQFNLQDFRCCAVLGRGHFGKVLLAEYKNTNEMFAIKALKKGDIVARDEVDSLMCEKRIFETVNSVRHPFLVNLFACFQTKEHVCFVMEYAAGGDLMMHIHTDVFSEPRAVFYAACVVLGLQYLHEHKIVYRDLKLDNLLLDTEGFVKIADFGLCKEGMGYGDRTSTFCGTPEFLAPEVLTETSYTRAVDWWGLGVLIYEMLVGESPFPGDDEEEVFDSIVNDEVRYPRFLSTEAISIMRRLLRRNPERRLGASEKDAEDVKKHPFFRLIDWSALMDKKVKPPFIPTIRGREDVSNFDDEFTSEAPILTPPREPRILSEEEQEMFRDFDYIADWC
Source text: as §1

266 human kinases [20] = molecular target: 266 human kinases (Homo sapiens, UniProt P08581); settings: Met(h); 100 μM
Source text: as §1

266 human kinases [21] = molecular target: 266 human kinases (Homo sapiens, UniProt Q05655); settings: PKGδ(h); 100 μM
Sequence of 266 human kinases (Homo sapiens, UniProt Q05655) (Q05655 whole entry): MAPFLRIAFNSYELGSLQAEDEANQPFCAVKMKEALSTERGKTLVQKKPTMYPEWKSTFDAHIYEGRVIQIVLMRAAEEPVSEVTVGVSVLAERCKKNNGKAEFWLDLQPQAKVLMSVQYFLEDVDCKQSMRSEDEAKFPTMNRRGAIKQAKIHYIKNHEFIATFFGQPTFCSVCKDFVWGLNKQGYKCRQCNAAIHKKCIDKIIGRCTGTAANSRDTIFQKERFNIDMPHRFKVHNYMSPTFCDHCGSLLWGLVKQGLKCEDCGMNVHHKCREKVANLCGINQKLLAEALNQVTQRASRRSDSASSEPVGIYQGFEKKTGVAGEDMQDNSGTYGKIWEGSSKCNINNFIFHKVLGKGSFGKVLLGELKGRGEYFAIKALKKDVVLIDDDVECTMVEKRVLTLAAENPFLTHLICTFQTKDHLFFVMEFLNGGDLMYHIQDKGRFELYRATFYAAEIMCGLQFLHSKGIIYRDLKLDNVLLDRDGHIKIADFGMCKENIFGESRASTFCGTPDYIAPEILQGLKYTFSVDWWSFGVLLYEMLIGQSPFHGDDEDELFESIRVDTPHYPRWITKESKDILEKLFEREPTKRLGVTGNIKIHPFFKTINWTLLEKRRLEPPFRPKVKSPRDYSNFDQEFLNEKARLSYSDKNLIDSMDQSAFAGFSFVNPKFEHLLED
Source text: as §1

266 human kinases [22] = molecular target: 266 human kinases (Homo sapiens, UniProt Q13131); settings: AMPKα1(h); 100 μM
Source text: as §1

266 human kinases [23] = molecular target: 266 human kinases (Homo sapiens, UniProt P12931); settings: 100 μM
Source text: as §1

266 human kinases [24] = molecular target: 266 human kinases (Homo sapiens, UniProt P17948); settings: Flt1(h); 100 μM
Sequence of 266 human kinases (Homo sapiens, UniProt P17948) (P17948 27-1338): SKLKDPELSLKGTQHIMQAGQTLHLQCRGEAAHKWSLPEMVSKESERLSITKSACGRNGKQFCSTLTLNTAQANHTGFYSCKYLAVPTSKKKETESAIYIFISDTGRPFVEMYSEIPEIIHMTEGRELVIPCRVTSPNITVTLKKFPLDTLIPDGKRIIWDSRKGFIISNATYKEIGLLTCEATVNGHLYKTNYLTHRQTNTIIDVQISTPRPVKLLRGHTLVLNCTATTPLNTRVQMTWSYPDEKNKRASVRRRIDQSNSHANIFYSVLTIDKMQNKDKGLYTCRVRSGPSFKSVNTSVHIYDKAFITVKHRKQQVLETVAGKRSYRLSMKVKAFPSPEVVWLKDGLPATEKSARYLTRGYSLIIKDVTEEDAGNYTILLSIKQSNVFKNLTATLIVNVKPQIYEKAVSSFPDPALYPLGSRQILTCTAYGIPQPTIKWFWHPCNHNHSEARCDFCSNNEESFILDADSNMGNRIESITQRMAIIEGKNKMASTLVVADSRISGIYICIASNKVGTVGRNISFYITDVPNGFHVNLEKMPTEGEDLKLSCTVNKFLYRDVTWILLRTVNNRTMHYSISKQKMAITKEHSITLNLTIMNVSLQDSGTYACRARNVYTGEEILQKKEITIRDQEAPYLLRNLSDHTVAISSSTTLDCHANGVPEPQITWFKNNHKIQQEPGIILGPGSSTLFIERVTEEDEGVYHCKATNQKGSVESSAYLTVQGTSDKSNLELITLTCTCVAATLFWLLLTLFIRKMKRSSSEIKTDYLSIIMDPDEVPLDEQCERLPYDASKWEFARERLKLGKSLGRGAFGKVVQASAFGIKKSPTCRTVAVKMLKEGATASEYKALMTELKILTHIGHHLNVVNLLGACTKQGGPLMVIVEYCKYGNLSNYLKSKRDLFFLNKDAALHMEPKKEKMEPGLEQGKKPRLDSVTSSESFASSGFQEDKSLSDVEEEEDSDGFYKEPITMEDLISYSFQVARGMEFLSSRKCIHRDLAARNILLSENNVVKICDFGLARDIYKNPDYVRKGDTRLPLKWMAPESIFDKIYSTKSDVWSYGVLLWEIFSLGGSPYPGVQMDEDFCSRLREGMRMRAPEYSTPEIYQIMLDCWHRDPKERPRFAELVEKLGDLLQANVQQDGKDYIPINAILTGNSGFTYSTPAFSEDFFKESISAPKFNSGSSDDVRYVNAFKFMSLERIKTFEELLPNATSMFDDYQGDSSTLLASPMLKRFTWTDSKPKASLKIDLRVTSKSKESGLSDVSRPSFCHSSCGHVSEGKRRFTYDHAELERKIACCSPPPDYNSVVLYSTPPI
Source text: as §1

266 human kinases [25] = molecular target: 266 human kinases (Homo sapiens, UniProt Q00534); settings: CDK6/cyclinD3(h); 100 μM
Source text: as §1

Sequence of 266 human kinases (Homo sapiens, UniProt Q9BYT3) (Q9BYT3 whole entry): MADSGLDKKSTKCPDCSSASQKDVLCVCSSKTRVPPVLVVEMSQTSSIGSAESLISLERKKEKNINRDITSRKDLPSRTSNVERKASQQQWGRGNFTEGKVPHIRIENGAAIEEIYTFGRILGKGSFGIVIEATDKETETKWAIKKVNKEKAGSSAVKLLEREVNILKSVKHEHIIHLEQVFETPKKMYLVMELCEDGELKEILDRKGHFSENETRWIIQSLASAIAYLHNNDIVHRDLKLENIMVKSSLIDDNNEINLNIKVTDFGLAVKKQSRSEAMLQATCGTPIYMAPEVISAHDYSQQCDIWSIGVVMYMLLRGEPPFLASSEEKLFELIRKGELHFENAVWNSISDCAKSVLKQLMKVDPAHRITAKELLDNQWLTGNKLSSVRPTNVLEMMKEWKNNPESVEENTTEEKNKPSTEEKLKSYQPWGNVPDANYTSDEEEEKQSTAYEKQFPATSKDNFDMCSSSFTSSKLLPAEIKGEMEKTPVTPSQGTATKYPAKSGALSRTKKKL

| Sequence | % activity (266 human kinases [1]) [%] | % activity (266 human kinases [2]) [%] | % activity (266 human kinases [3]) [%] | % activity (266 human kinases [4]) [%] | % activity (266 human kinases [5]) [%] | % activity (266 human kinases [6]) [%] | % activity (266 human kinases [7]) [%] | % activity (266 human kinases [8]) [%] | % activity (266 human kinases [9]) [%] | % activity (266 human kinases [10]) [%] | % activity (266 human kinases [11]) [%] | % activity (266 human kinases [12]) [%] | % activity (266 human kinases [13]) [%] | % activity (266 human kinases [14]) [%] | % activity (266 human kinases [15]) [%] | % activity (266 human kinases [16]) [%] | % activity (266 human kinases [17]) [%] | % activity (266 human kinases [18]) [%] | % activity (266 human kinases [19]) [%] | % activity (266 human kinases [20]) [%] | other results |
| --- | --- | --- | --- | --- | --- | --- | --- | --- | --- | --- | --- | --- | --- | --- | --- | --- | --- | --- | --- | --- | --- |
| YARAAARQARAKALNRQLGVA (mammal) [MMI-0200] | 98 | 98 | 100 | 90 | 84 | 92 | 95 | 2 | 94 | 74 | 86 | 67 | 120 | 124 | 120 | 94 | 208 | 108 | 74 | 71 | % activity (266 human kinases [21]): 101%; % activity (266 human kinases [22]): 108%; % activity (266 human kinases [23]; Src(1-530)(h)): 75%; % activity (266 human kinases [23]; cSRC(h)): 32%; % activity (266 human kinases [24]): 96%; % activity (266 human kinases [25]): 100% |
| HRRIKAWLKKIKALARQLGVAA (mammal) [MMI-0500] | 16 | 16 | 80 | 95 | 3 | 78 | 42 | 1 | 3 | 46 | 16 | 1 | 26 | 93 | 46 | 8 | 10 | 16 | 7 | 27 | % activity (266 human kinases [4]; activated): 90%; % activity (266 human kinases [21]): 61%; % activity (266 human kinases [22]): 35%; % activity (266 human kinases [23]; Src(1-530)(h)): 21%; % activity (266 human kinases [23]; cSRC(h)): 30%; % activity (266 human kinases [24]): 27%; % activity (266 human kinases [25]): 23% |
